Measured values from publication PMC11026450 (Scientific Reports, 2024).

What was measured:
PANC1 spheroids = experiment: 3D-spheroid growth assay, PANC1; type: cell-based, human; settings: 3D floating PANC1 spheroids, 0.5 µM, treated day 0, 2, 4, 7, 9 over 10 days; vs vehicle [0.2% DMSO] and DRx-150 [10 µM]; n = 5
Experimental: PANC1 cells were seeded at 2 × 10^3 in wells of a round bottom Nunclon™ Sphera™ 96 well-plate with ultra-low attachment coating (Thermo; #174925), containing 200 μL DMEM (2% FBS, 2 mM L-glutamine, 100 U/I Pen-Strep). To encourage spheroid formation, PANC1 cells were centrifuged at 250 × g for 10 min at room temperature. PANC1 spheroids were then allowed to grow for 3 days at 37 °C, 5% CO2, humidified air. Spheroids were then treated with appropriate concentration of DRx-peptide/afatinib by first removing 100 μL of media from each well (careful not to disturb spheroid), followed by addition of 100 μL drug at 2× concentration. Cells were treated five times over a 10 day period (day 0, 2, 4, 7 and 9). Spheroids were imaged on day 0, 2, 4, 7 and 10 using a Nikon Eclipse TS2 microscope and spheroid area quantified using Image J software. Data represented as a fold-difference of relative day 0 spheroid measurement (i.e., day 0 normalised to 1).

[1] = molecular target: T1, full-length human PDE8A1-MBP (human, UniProt O60658-1 1-829); experiment: peptide or protein array; human c-RAF 20mer peptides SPOT-synthesised on cellulose membrane; far western approach: 0.1 μM PDE8A1-MBP overnight at 4 °C in 1x TBS, 5% glycerol, pH 7.4; detected with αMBP-HRP and ECL; MBP alone as negative control; signal normalised to the strongest binding peptide; settings: both partners purified
T1 construct: Phosphodiesterase 8A, isoform PDE8A1, human, full length; the tag was detected with an anti-MBP-HRP antibody (Abcam ab49923); also called human recombinant PDE8A1-MBP; source: recombinant
T1 sequence (O60658 whole entry, canonical isoform): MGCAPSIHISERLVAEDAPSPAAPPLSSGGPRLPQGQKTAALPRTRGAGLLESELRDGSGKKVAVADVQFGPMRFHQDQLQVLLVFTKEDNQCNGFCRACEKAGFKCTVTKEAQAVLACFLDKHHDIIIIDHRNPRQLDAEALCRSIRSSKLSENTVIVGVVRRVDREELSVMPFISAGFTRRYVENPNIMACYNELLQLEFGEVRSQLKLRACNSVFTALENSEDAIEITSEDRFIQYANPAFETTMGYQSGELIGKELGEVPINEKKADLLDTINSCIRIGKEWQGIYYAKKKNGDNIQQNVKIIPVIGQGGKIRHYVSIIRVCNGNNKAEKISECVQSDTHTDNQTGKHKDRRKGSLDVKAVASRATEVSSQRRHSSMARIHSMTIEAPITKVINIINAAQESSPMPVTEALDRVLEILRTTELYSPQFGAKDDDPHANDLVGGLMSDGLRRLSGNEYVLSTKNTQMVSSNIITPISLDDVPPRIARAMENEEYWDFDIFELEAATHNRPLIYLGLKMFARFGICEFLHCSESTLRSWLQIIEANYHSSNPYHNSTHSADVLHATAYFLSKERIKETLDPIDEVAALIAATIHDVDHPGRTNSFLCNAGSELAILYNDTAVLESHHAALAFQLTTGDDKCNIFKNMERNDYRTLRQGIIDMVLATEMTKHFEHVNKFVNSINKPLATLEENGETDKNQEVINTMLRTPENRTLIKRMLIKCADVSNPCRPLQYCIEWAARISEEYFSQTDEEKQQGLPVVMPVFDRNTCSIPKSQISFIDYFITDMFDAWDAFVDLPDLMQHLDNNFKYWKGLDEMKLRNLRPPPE

Molecule: CN(C)C/C=C/C(=O)Nc1cc2c(Nc3ccc(F)c(Cl)c3)ncnc2cc1O[C@H]1CCOC1 [afatinib, afatinib dimaleate]
- relative spheroid area (fold-difference vs. Day 0) (PANC1 spheroids): significantly attenuated

B1: human c-RAF peptide 8 (F36–S55) (peptide, UniProt P04049 36-55, looked up)
peptide: FGYQRRASDDGKLTDPSKTS
notes: c-RAF, human, 20mer of the peptide array, residues F36–S55; source: synthetic peptide, SPOT synthesis on cellulose membrane
- binding result [1]: binds

B2: human c-RAF peptide 49 (N241–T260) (peptide, UniProt P04049 241-260, looked up)
peptide: NTSSPSSEGSLSQRQRSTST
notes: c-RAF, human, 20mer of the peptide array, residues N241–T260; source: synthetic peptide, SPOT synthesis on cellulose membrane
- binding result [1]: binds

B3: human c-RAF peptide 117 (M581–P600) (peptide, UniProt P04049 581-600, looked up)
peptide: MKRLVADCVKKVKEERPLFP
notes: c-RAF, human, 20mer of the peptide array, residues M581–P600; source: synthetic peptide, SPOT synthesis on cellulose membrane
- binding result [1]: binds

B4: human c-RAF peptide 123 (H611–H630) (peptide, UniProt P04049 611-630, looked up)
peptide: HSLPKINRSASEPSLHRAAH
notes: c-RAF, human, 20mer of the peptide array, residues H611–H630; source: synthetic peptide, SPOT synthesis on cellulose membrane
- binding result [1]: binds
